Measured values as given in patent US20220064275A1 (SCHOLAR ROCK, published 2022).
Where a chain is given by its changes, count along the chain named.

B1: Ab16 (antibody, V domains shown)
VH: EVQLLESGGGLVQPGGSLRLSCAASGFTFSNYAMSWVRQAPGKGLEWVSAISGSGFTTYYADSVKGRFTISRDNSKNTLYLQMNSLRAEDTAVYYCARVSSGHWDFDYWGQGTLVTVSS
VL: DIQLTQSPSSLSASVGDRVTITCRASQSISSYLNWYQQKPGKAPKLLIYAASNLQSGVPSRFSGSGSGTDFTLTISSLQPEDFATYYCQQTYTVPLTFGGGTKVEIK
B2: Ab10 (antibody, V domains shown)
VH: B1 VH with S30R, A50S, F56G, T57A
VL: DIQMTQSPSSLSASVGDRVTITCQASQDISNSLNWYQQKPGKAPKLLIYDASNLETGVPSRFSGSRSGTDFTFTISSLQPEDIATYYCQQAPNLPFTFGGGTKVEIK
B3: Ab9 (antibody, V domains shown)
VH: B1 VH with E1Q, L5V, L11V, N31S, Y32F, S35T, F56A, T57A, Y60F
VL: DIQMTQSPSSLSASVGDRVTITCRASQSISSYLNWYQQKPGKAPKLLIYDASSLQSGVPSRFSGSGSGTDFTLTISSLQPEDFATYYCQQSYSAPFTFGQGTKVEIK
B4: Ab7 (antibody, V domains shown)
VH: B1 VH with S30A, N31D, S35T, S54T, F56A, T57H
VL: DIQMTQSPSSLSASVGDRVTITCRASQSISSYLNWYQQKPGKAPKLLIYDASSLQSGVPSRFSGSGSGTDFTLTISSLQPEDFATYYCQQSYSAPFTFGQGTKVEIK
B5: Ab36 (antibody, V domains shown)
VH: B1 VH with S30R, A50S, F56G, T57A, F106L
VL: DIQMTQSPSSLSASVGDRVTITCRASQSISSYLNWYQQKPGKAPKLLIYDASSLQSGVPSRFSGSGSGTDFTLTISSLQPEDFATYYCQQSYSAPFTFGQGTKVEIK
B6: Ab8 (antibody, V domains shown)
VH: B1 VH with E1Q, L5V, L11V, G16R, N31D, S35V
VL: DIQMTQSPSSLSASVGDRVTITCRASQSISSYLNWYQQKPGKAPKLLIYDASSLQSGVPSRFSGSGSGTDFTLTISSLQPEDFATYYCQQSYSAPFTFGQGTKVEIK
B7: Ab13 (antibody, V domains shown)
VH: B1 VH with S30A, N31D, S35T, G53S, S54F, G55A, F56S, T57A, T58I
VL: B1 VL with L4M, N53S, T91V, T93D, V94P
B8: Ab17 (antibody, V domains shown)
VH: B1 VH with L11V, N31S, Y32F, S35T, F56A, T57A, Y60F
VL: B1 VL
B9: Ab18 (antibody, V domains shown)
VH: B1 VH with E1Q, L5V, L11V, G16R, N31D, S35V, F56A, T57A, Y60F, R98T
VL: B1 VL
B10: Ab15 (antibody, V domains shown)
VH: B1 VH with L5V, L11V, G16R, N31D, S35V
VL: B1 VL
B11: Ab14 (antibody, V domains shown)
VH: B1 VH with N31A, S35T, S54T, F56G, T57S
VL: B1 VL with L4M, N53S, T91V, T93D, V94P
B12: Ab21 (antibody, V domains shown)
VH: EVQLVESGGGLVQPGGSLRLSCAASGFTFSSFSMDWVRQAPGKGLEWVSYISPDASTIYYADSVKGRFTISRDNAKNSLYLQMNSLRAEDTAVYYCARGVLDYGDMLDPWGQGTLVTVSS
VL: DIQMTQSPSSLSASVGDRVTITCQASQDITNYLNWYQQKPGKAPKLLIYDASNLETGVPSRFSGSGSGTDFTFTISSLQPEDIATYYCQQADNHPPWTFGGGTKVEIK
B13: Ab25 (antibody, V domains shown)
VH: B12 VH with S30G
VL: B12 VL
B14: Ab23 (antibody, V domains shown)
VH: B12 VH with D35N, D54S, S56D, S78T
VL: B12 VL
B15: Ab28 (antibody, V domains shown)
VH: B12 VH with A97V
VL: B12 VL
B16: Ab27 (antibody, V domains shown)
VH: B12 VH with S31F, F32Y, S33A, D35N
VL: B12 VL
B17: Ab22 (antibody, IgG4, V domains shown)
VH: B12 VH with S30G, D35N, S52H, P53S
VL: B12 VL
B18: Ab30 (antibody, IgG4, V domains shown)
VH: B12 VH with V100T
VL: B12 VL
B19: Ab24 (antibody, IgG4, V domains shown)
VH: B12 VH with G16R, S33A, D35Y
VL: B12 VL
B20: Ab1 (antibody, V domains shown)
VH: B1 VH with S30R, A50S, F56G, T57A
VL: DIQLTQSPSSLSASVGDRVTITCQASQDISNFLNWYQQKPGKAPKLLIYDASNLETGVPSRFSGSGSGTDFTFTISSLQPEDIATYYCQQVFNPPLTFGGGTKVEIK
B21: Ab5 (antibody, V domains shown)
VH: B12 VH
VL: B12 VL

Each binder was assayed against T1, human LTBP1-proTGFβ1 complex (human, UniProt Q14766 873-1507) (assay: BLI (Octet)).
T1 construct: range 873-1507; biotinylated in Octet and MSD-SET; also called hLTBP1-proTGFβ1; hLTBP1
For B1, the Kd was 0.181 nM.
For B2, the Kd was 0.262 nM.
B3 gave a Kd of 0.348 nM.
B4 gave a Kd of 0.487 nM.
In the case of B5, the Kd is reported as 0.353 nM.
Binder B6 has a Kd of 0.329 nM.
Work on B7 yielded a Kd of 0.276 nM.
Binder B8 has a Kd of 0.174 nM.
Binder B9 has a Kd of 0.312 nM.
With B10 the Kd was 0.15 nM.
Binder B11 has a Kd of 0.336 nM.
With B12 the Kd was 0.225 nM.
B13 was tested, and the Kd was 0.217 nM.
B14 gave a Kd of 0.417 nM.
Binder B15 has a Kd of 0.34 nM.
B16 showed a Kd of 0.178 nM.
Binder B17 has a Kd of 0.318 nM.
B18 showed a Kd of 0.332 nM.
B19 gave a Kd of 0.246 nM.

Each binder was assayed against T2, human LTBP3-proTGFβ1 complex (human, UniProt Q9NS15 866-1039) (assay: BLI (Octet)).
T2 construct: range 866-1039; also called hLTBP3-proTGFβ1; hLTBP3
B1 gave a Kd of 0.132 nM.
B2 gave a Kd of 0.319 nM.
In the case of B3, the Kd is reported as 0.284 nM.
B4 showed a Kd of 0.417 nM.
B5 was tested, and the Kd was 0.415 nM.
With B6 the Kd was 0.302 nM.
For B7, the Kd was 0.249 nM.
In the case of B8, the Kd is reported as 0.208 nM.
B9 showed a Kd of 0.257 nM.
For B10, the Kd was 0.168 nM.
In the case of B11, the Kd is reported as 0.346 nM.
Binder B12 has a Kd of 0.268 nM.
Work on B13 yielded a Kd of 0.152 nM.
With B14 the Kd was 0.468 nM.
B15 was tested, and the Kd was 0.316 nM.
B16 showed a Kd of 0.238 nM.
B17 gave a Kd of 0.329 nM.
Binder B18 has a Kd of 0.261 nM.
B19 showed a Kd of 0.198 nM.

These binders were tested against T3, human GARP-proTGFβ1 complex (human, UniProt Q14392 20-627; P01137 30-390) (assay: BLI (Octet)).
T3 construct: also called hGARP-proTGFβ1; hGARP
Binder B1 has a Kd of 4.16 nM.
Work on B2 yielded a Kd of 10.2 nM.
B3 showed a Kd of 15.5 nM.
Work on B4 yielded a Kd of 18 nM.
With B5 the Kd was 12.8 nM.
For B6, the Kd was 15.4 nM.
With B7 the Kd was 10 nM.
Work on B8 yielded a Kd of 8.62 nM.
B9 showed a Kd of 11.5 nM.
For B10, the Kd was 7.01 nM.
B11 was tested, and the Kd was 10.5 nM.
With B12 the Kd was 0.833 nM.
B13 showed a Kd of 0.488 nM.
Binder B14 has a Kd of 1.34 nM.
With B15 the Kd was 0.797 nM.
With B16 the Kd was 0.424 nM.
With B17 the Kd was 0.974 nM.
In the case of B18, the Kd is reported as 0.833 nM.
Work on B19 yielded a Kd of 0.665 nM.

These binders were tested against T4, human LRRC33-proTGFβ1 complex (human, UniProt Q86YC3 19-650; P01137 30-390) (assay: BLI (Octet)).
T4 construct: also called hLRRC33-proTGFβ1; hLRRC33
B1 gave a Kd of 0.631 nM.
B2 showed a Kd of 1.06 nM.
B3 showed a Kd of 1.3 nM.
With B4 the Kd was 10.3 nM.
B5 showed a Kd of 1.42 nM.
In the case of B6, the Kd is reported as 10 nM.
Binder B7 has a Kd of 1.4 nM.
With B8 the Kd was 0.658 nM.
For B9, the Kd was 1.02 nM.
With B10 the Kd was 0.702 nM.
B11 showed a Kd of 1.34 nM.
B12 showed a Kd of 0.455 nM.
B13 was tested, and the Kd was 0.409 nM.
B14 gave a Kd of 0.455 nM.
B15 gave a Kd of 0.409 nM.
B16 was tested, and the Kd was 0.299 nM.
B17 gave a Kd of 0.415 nM.
B18 gave a Kd of 0.535 nM.
B19 showed a Kd of 0.41 nM.

Each binder was assayed against hLTBP1-proTGFβ1 complex made by transfected cells (cell-based potency assay) (human, UniProt Q14766 347-1721; P01137 30-390) (assay: cell-based or functional assay).
hLTBP1-proTGFβ1 complex made by transfected cells (cell-based potency assay), sequence (Q14766 347-1721, chain 1 of 2): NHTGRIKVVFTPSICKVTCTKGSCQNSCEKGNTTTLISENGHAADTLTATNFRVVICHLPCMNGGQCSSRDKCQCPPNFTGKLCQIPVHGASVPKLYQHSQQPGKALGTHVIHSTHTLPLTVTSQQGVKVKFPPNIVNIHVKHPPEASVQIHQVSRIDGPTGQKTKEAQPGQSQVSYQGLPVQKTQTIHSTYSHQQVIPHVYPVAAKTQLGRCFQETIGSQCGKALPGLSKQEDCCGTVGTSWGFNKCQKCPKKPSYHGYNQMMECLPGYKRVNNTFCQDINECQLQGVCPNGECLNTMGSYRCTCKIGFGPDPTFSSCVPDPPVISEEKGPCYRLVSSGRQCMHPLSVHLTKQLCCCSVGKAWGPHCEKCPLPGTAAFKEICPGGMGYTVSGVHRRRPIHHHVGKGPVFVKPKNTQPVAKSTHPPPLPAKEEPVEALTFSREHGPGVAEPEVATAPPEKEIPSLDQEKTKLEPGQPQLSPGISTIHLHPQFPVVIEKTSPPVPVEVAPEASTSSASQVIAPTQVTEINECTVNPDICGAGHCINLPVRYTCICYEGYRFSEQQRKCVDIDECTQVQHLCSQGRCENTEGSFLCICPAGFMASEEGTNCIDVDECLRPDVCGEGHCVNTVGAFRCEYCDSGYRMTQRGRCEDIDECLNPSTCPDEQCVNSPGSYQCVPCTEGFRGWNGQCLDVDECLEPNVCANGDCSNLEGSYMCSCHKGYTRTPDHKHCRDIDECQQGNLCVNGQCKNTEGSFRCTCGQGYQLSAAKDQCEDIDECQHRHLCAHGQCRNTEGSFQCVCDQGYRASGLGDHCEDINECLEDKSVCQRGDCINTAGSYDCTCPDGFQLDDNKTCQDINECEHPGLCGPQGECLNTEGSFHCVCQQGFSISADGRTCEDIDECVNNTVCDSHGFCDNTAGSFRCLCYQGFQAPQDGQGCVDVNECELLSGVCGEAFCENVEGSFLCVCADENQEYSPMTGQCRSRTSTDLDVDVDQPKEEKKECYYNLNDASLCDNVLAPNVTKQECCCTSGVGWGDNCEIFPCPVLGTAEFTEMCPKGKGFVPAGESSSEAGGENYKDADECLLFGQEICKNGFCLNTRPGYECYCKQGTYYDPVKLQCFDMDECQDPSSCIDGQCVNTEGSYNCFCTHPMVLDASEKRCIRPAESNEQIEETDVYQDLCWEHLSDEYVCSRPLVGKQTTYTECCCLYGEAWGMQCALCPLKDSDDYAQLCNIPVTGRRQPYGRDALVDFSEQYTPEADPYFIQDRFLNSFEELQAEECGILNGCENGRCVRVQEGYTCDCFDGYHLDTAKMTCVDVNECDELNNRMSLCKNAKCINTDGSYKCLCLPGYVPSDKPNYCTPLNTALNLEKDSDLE
hLTBP1-proTGFβ1 complex made by transfected cells (cell-based potency assay), sequence (P01137 30-390, chain 2 of 2): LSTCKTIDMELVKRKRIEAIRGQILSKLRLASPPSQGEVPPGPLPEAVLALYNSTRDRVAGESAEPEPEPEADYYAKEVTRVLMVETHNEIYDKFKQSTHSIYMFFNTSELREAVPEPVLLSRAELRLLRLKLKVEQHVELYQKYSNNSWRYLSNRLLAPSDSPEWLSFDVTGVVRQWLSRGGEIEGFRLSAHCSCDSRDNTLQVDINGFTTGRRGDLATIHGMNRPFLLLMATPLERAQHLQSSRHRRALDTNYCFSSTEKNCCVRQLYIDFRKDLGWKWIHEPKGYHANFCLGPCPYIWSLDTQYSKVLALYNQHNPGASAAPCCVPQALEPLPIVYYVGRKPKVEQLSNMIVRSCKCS
For B20, the “IC50, reporter cell assay of TGFβ1 activation” value (“IC50, reporter cell assay” below) was 14.5 nM.
For B21, the “IC50, reporter cell assay” value was 1.29 nM.
B12 was tested, and the “IC50, reporter cell assay” value was 1.61 nM.
For B13, the “IC50, reporter cell assay” value was 6.08 nM.
In the case of B14, the “IC50, reporter cell assay” value is reported as 0.835 nM.

These binders were tested against hLTBP3-proTGFβ1 complex made by transfected cells (cell-based potency assay) (human, UniProt Q9NS15 44-1303; P01137 30-390) (assay: cell-based or functional assay).
hLTBP3-proTGFβ1 complex made by transfected cells (cell-based potency assay), sequence (Q9NS15 44-1303, chain 1 of 2): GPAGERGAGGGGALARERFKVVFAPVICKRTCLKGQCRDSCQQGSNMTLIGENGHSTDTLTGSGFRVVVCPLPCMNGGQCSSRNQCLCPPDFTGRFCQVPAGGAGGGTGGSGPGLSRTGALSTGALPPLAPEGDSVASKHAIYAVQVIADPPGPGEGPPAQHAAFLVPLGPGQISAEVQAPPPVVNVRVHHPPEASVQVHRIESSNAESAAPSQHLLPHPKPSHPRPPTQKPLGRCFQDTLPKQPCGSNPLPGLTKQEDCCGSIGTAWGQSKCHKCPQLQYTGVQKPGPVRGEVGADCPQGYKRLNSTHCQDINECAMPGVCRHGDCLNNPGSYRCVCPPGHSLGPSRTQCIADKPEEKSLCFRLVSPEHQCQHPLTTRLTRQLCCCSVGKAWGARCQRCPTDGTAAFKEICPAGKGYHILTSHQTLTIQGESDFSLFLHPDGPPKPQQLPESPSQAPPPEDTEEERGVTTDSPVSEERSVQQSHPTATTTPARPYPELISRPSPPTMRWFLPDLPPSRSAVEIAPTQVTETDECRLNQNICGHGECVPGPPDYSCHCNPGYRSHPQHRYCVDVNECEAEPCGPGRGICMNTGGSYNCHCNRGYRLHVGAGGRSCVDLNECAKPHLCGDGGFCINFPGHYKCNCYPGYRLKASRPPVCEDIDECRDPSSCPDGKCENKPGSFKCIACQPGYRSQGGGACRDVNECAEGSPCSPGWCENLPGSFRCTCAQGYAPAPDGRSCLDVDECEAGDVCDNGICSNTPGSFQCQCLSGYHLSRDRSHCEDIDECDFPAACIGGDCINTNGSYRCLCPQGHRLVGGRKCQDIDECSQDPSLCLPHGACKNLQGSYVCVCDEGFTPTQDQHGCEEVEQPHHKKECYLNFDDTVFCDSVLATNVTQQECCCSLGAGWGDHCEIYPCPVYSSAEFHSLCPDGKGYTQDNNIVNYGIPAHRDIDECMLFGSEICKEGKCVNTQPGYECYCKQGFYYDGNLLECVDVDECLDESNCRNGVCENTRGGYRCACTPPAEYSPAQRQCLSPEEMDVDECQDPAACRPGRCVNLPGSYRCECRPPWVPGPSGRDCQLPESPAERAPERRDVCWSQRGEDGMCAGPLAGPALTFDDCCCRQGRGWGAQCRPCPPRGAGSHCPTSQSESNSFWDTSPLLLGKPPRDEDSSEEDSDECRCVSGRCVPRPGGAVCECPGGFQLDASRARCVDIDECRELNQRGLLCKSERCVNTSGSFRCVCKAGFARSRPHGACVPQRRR
hLTBP3-proTGFβ1 complex made by transfected cells (cell-based potency assay), sequence (P01137 30-390, chain 2 of 2): as the sequence (P01137 30-390, chain 2 of 2) above
B20 was tested, and the “IC50, reporter cell assay” value was 2.71 nM.
In the case of B21, the “IC50, reporter cell assay” value is reported as 1 nM.
With B12 the “IC50, reporter cell assay” value was 0.765 nM.
B13 was tested, and the “IC50, reporter cell assay” value was 0.538 nM.
In the case of B14, the “IC50, reporter cell assay” value is reported as 0.879 nM.

Each binder was assayed against hGARP-proTGFβ1 complex on cells (human, UniProt Q14392 20-662; P01137 30-390) (assay: cell-based or functional assay).
In the case of B20, the “IC50, reporter cell assay” value is reported as 3.71 nM.
In the case of B21, the “IC50, reporter cell assay” value is reported as 0.14 nM.
B12 was tested, and the “IC50, reporter cell assay” value was 0.401 nM.
With B13 the “IC50, reporter cell assay” value was 0.442 nM.
In the case of B14, the “IC50, reporter cell assay” value is reported as 0.264 nM.

The binders below were run against hLRRC33-proTGFβ1 complex on cells (human, UniProt Q86YC3 19-692; P01137 30-390) (assay: cell-based or functional assay).
hLRRC33-proTGFβ1 complex on cells, sequence (Q86YC3 19-692 limits assumed, chain 1 of 2): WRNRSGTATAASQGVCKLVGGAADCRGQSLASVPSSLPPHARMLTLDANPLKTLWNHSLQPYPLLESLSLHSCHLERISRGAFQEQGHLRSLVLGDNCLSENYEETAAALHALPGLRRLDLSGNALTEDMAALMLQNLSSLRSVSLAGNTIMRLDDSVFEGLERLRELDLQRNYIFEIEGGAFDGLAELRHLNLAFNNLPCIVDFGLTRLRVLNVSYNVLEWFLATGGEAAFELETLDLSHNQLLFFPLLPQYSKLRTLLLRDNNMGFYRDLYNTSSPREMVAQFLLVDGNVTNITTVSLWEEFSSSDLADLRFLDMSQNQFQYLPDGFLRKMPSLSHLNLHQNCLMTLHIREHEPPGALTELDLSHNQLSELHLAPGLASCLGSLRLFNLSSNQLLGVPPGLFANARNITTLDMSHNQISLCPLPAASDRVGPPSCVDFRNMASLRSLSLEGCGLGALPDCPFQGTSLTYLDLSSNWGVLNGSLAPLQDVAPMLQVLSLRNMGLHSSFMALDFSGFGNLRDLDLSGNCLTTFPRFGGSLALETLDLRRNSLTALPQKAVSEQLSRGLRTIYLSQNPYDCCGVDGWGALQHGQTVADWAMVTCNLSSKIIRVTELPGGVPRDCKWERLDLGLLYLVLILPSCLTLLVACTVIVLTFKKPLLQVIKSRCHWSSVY
hLRRC33-proTGFβ1 complex on cells, sequence (P01137 30-390 limits assumed, chain 2 of 2): as the sequence (P01137 30-390, chain 2 of 2) above
B20 was tested, and the “IC50, reporter cell assay” value was 5.37 nM.
B21 was tested, and the “IC50, reporter cell assay” value was 0.616 nM.
For B12, the “IC50, reporter cell assay” value was 0.596 nM.
With B13 the “IC50, reporter cell assay” value was 0.653 nM.
With B14 the “IC50, reporter cell assay” value was 0.579 nM.

Each binder was assayed against T1, human LTBP1-proTGFβ1 complex (assay: MSD-SET, solution equilibrium titration).
Procedure: (§1) MSD-SET assays were performed to measure affinities of the antibodies at equilibrium. Briefly, each test antibody was diluted 3-5 fold and samples were mixed with biotinylated antigen in a 48-well dish. The SET samples were equilibrated for 20-24 hours at room temperature. Meanwhile, a capture plate was coated with IgG (20 nM) and incubated overnight at 4° C. or 30 minutes at room temperature, followed by a blocking step with 5% BSA. After the capture plate was washed three times, SET samples were added and incubated for 150 seconds. The plate was washed once to remove unbound complexes. 250 ng/ml SA-Sulfotag was added then washed 3 times. 2× Read Buffer was added, and signals from the labeled bound complexes were read with the use of QuickPlex™ SQ 120 instrument.
Binder B17 has a Kd of 0.05 nM.
B18 gave a Kd of 0.031 nM.
In the case of B19, the Kd is reported as 0.024 nM.

These binders were tested against T2, human LTBP3-proTGFβ1 complex (assay: MSD-SET, solution equilibrium titration).
Procedure: as §1
Binder B17 has a Kd of 0.033 nM.
Work on B18 yielded a Kd of 0.026 nM.
Work on B19 yielded a Kd of 0.021 nM.

What follows are binders tested against T3, human GARP-proTGFβ1 complex (assay: MSD-SET, solution equilibrium titration).
Procedure: as §1
For B17, the Kd was 0.027 nM.
Binder B18 has a Kd of 0.022 nM.
B19 was tested, and the Kd was 0.019 nM.

What follows are binders tested against T4, human LRRC33-proTGFβ1 complex (assay: MSD-SET, solution equilibrium titration).
Procedure: as §1
Work on B17 yielded a Kd of 0.2 nM.
With B18 the Kd was 0.14 nM.
Work on B19 yielded a Kd of 0.18 nM.
